# Target: paDXPS as measured by native mass spectrometry (Pseudomonas aeruginosa) (UniProt Q9KGU7)
# Experiment: native MS
substance,measurement,value
paDXPS as measured by native mass spectrometry (from UniProt Q9KGU7 1-627) (enzyme),stoichiometry N,2

# Source: publication doi:10.1101/2022.07.04.498669
